Experimental data reported in paper PMC3489827 (PLoS ONE, 2012).

T1: Ephrin-B2 (S27-D167) (UniProt P52799 27-167)
T1 construct: also called ephrin-B2 receptor; not shown: Fc, C-terminal, cleaved
T1 sequence (looked up): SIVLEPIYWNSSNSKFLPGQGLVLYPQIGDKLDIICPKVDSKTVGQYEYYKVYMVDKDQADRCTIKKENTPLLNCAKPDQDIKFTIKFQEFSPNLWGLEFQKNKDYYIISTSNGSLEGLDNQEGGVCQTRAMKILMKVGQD

B1: HeV-G globular head domain (174–602) (domain or fragment)
chain: ISQGVSDLVGLPNQICLQKTTSTILKPRLISYTLPINTREGVCITDPLLAVDNGFFAYSHLEKIGSCTRGIAKQRIIGVGEVLDRGDKVPSMFMTNVWTPPNPSTIHHCSSTYHEDFYYTLCAVSHVGDPILNSTSWTESLSLIRLAVRPKSDSGDYNQKYIAITKVERGKYDKVMPYGPSGIKQGDTLYFPAVGFLPRTEFQYNDSNCPIIHCKYSKAENCRLSMGVNSKSHYILRSGLLKYNLSLGGDIILQFIEIADNRLTIGSPSKIYNSLGQPVFYQASYSWDTMIKLGDVDTVDPLRVQWRNNSVISRPGQSQCPRFNVCPEVCWEGTYNDAFLIDRLNWVSAGVYLNSNQTAENPVFAVFKDNEILYQVPLAEDDTNAQKTITDCFLLENVIWCISLVEIYDTGDSVIRPKLFAVKIPAQCS

Columns and labels:
[1] = target: HeV-G globular head domain (174–602) (Hendra virus) (UniProt O89343); assay: crystal structure
Ephrin-B2 (S27-D167) = target: T1, Ephrin-B2 (S27-D167); assay: crystal structure; settings: both partners purified

| Molecule | stoichiometry N [1] | stoichiometry N (Ephrin-B2 (S27-D167)) |
| --- | --- | --- |
| HeV-G globular head domain (174–602) (from UniProt O89343 174-602) (domain or fragment) | 2 |  |
| B1 |  | 1 |
